Source: the supplement of paper PMC9732359
± gives the uncertainty stated by the source.

Assay: protein stability index of a GFP-peptide fusion (yeast GPS) (PSI 1-4); higher = more stable; sorted into four equal gates, so the index is relative within each strain
Summary of the method: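 Sequencing reads from sorted gates were used to score each peptide. The library consisted of tiled 17-residue yeast protein peptides fused downstream of GFP on a Cherry-expressing plasmid, pooled and carried in yeast. Mid-log cultures in leucine-free medium were split into four equal gates by GFP/Cherry ratio, and each gate's plasmids were PCR-amplified and Illumina-sequenced. The protein stability index adds up, over all gates, the read frequency multiplied by the gate number.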

Sequence	protein stability index (doa10∆)	protein stability index (pdr5∆)	protein stability index (san1∆)	protein stability index (ubr1∆)
YDIDEIDHSDESNRQSV [ESC2]	3.19 ± 0.14	3.35 ± 0.096	3.23 ± 0.13	3.84 ± 0.25
NWYKSKKKAFTKYSAKY [RPL3]	3.23 ± 0.16	3.25 ± 0.1	3.07 ± 0.079	3.01 ± 0.045
ENSEPPALESSPVTGDN [SNF2]	3.3 ± 0.075	3.24 ± 0.073	3.19 ± 0.067	3.22 ± 0.062
VTKILPHLIIQNHNSKS [IRR1]	1.41 ± 0.11	1.19 ± 0.072	1.16 ± 0.13	1.15 ± 0.073
TYSTPKRPYESSRLDAE [RPS9A]	2.97 ± 0.073	3.02 ± 0.062	2.93 ± 0.082	2.87 ± 0.064
QYQLLYNLKNDILTNLE [SWI1]	1.81 ± 0.033	1.89 ± 0.037	1.74 ± 0.077	1.65 ± 0.031
LCDLFVNGSITDQLIQN [NUT1]	–	2.11 ± 0.22	1.76 ± 0.21	3.44 ± 0.29
RFRKAQCPIIERLTNSL [RPS5]	2.32 ± 0.2	2.82 ± 0.26	–	2.07 ± 0.21
KEALLGQLLKDHLIIEP [ARP9]	1.79 ± 0.12	1.51 ± 0.077	1.18 ± 0.16	2.45 ± 0.094
SSLEARYFFYLSKINAI [RPN3]	1.74 ± 0.05	2.17 ± 0.064	1.95 ± 0.1	1.75 ± 0.042
NINNSSVAEKEEIRSQI [SWI3]	2.64 ± 0.072	2.19 ± 0.077	2.2 ± 0.075	2.51 ± 0.059
LAKILARSIDVEKGVNP [ECM29]	1.21 ± 0.09	1.21 ± 0.062	1.4 ± 0.17	1.07 ± 0.071
IQEYQLCDNFNHFSLSY [COR1]	2.35 ± 0.049	2.61 ± 0.053	2.44 ± 0.055	2.27 ± 0.057
AADVSAVDAKQLAQIRQ [YML103C/NUP188]	2.25 ± 0.071	2.94 ± 0.073	3.25 ± 0.072	2.5 ± 0.057
KSNSTGNISSSTVKKKD [REC8]	2.96 ± 0.058	2.96 ± 0.058	2.83 ± 0.039	3.02 ± 0.049
QEVTNEAPFLTSGTSSE [GAL11]	3.35 ± 0.079	3.35 ± 0.08	3.42 ± 0.067	3.13 ± 0.073
DSIIDNIVKLCFVHRYK [IRR1]	2.57 ± 0.11	1.95 ± 0.042	1.99 ± 0.11	2.08 ± 0.035
DHKRFIVFHNEFSEHTF [DIS3]	2.55 ± 0.042	2.92 ± 0.048	2.85 ± 0.046	3.02 ± 0.038
MSTELTVQSERAFQKQP [RPS11A]	3.13 ± 0.1	2.97 ± 0.099	2.98 ± 0.11	2.75 ± 0.076
AKETHTKPSETPATIVK [YOR098C/NUP1]	3.28 ± 0.092	3.17 ± 0.066	2.87 ± 0.064	3.12 ± 0.066
MSRDAPIKADKDYSQIL [RPN5]	2.97 ± 0.1	2.44 ± 0.078	2.21 ± 0.13	2.67 ± 0.062
GDQFLRYVNLLGVTYSS [PRE4]	2.27 ± 0.1	2.33 ± 0.062	2.1 ± 0.075	2.02 ± 0.042

Sequence	protein stability index (doa10∆)	protein stability index (pdr5∆)	protein stability index (san1∆)	protein stability index (ubr1∆)
VPEFFQTANEKHITVRL [SRP14]	3.02 ± 0.1	2.67 ± 0.11	3.01 ± 0.12	2.56 ± 0.1
TMGGNAELELVDSLDPF [SMC4]	3.25 ± 0.1	3.17 ± 0.086	3.39 ± 0.074	3.15 ± 0.084
SDPESERPAIEFETPTF [RPN14]	3.13 ± 0.054	3.11 ± 0.055	3.02 ± 0.047	3.15 ± 0.053
GPKKNVFYAPNVKNYST [RPC34]	2.69 ± 0.072	2.56 ± 0.059	2.91 ± 0.056	2.49 ± 0.044
GNVFSPIDNNIIFASTK [SNU114]	3.16 ± 0.062	2.97 ± 0.092	2.97 ± 0.052	2.95 ± 0.046
NHSNNDIPTIADEHFWA [BRN1]	3.38 ± 0.099	3.11 ± 0.077	3.2 ± 0.059	3.24 ± 0.036
FLQRVRVWEYRQKNVIH [RPL15A]	1.77 ± 0.24	1.72 ± 0.085	–	2.02 ± 0.19
LPKLKATGHRVLIFFQM [SNF2]	1.69 ± 0.13	1.52 ± 0.083	2.09 ± 0.12	2.09 ± 0.14
QNSKFLKVNVTLDNPLL [YJL039C/NUP192]	2.72 ± 0.088	2.57 ± 0.083	2.91 ± 0.058	2.36 ± 0.044
KAMSSRAGVSQVLNRYT [RPB2]	3.17 ± 0.11	3.21 ± 0.096	2.97 ± 0.073	3.29 ± 0.053
CANCVKERIVRAFLIEE [RPL34B]	–	3.47 ± 0.26	–	–
TVMFFYHNKHMMCDFGT [DIB1]	2.58 ± 0.049	2.51 ± 0.046	2.6 ± 0.046	2.54 ± 0.032
NVFTPEISSQIEILVKD [RRI2]	1.65 ± 0.1	2.02 ± 0.12	2.65 ± 0.15	1.3 ± 0.066
SFAKLVPCEGKDVTQGL [SMC2]	1.62 ± 0.08	2.07 ± 0.088	1.5 ± 0.23	1.86 ± 0.08
FNRALDQSISKLQSWDK [NNF1]	1.63 ± 0.066	1.49 ± 0.068	1.51 ± 0.085	1.78 ± 0.051
KPTSPFIDSICKLFDKI [SRB8]	1.56 ± 0.04	1.93 ± 0.035	1.56 ± 0.055	1.41 ± 0.034
GISSTLVSANNDNNSPH [YLR018C/POM34]	2.62 ± 0.051	2.89 ± 0.06	3.01 ± 0.058	2.96 ± 0.067
MNETLNLKVELKEQSEQ [SMC4]	–	–	2.14 ± 0.29	3.42 ± 0.12
EELFTQLFHSMSIVFGD [UBP6]	3.17 ± 0.087	3.35 ± 0.087	3.38 ± 0.05	2.98 ± 0.089
HNQSPRNTYQSAMGKQA [RPB2]	2.48 ± 0.063	2.77 ± 0.062	2.37 ± 0.06	2.25 ± 0.039
YKYKMRYVYAHFPINVN [RPL9A]	2.29 ± 0.051	2.29 ± 0.053	2.08 ± 0.078	2.51 ± 0.041
IRSERFKVARELKTEAA [ITC1]	–	2.25 ± 0.25	–	–
